Patent publication US20220251152A1, “COMPOSITIONS AND METHODS FOR SELECTIVE PROTEIN DEGRADATION” (Novartis AG, priority 2019, published 2022)
Numbering of substitutions follows the chain as printed.

Tested on: CAR19 fused to HilD tag and/or FurON
Assay: Flow cytometry of surface CAR expression on JNL cells, 10 μM lenalidomide and/or bazedoxifene 24 hours
Assay type: cell-based, human
Settings: for effect of lenalidomide on surface CAR expression of the construct: 10 μM lenalidomide for 24 hours
[1] = surface CAR on transduced JNL cells, 10 μM lenalidomide, 24 hours

From the text: Next, the surface expression of CAR19 on stably transduced JNL cells was examined by flow cytometry. […] On Day 2, cells were harvested, stained using biotinylated-protein L (Genscript, M00097) followed by PE conjugated streptavidin (Jackson Lab, 016-110-084), and subjected to flow cytometry analysis using Fortessa instrument.

B1: construct 6761: signal peptide, CAR19, a 16KGS linker, the HilD tag, and a V5 (protein)
chain: MALPVTALLLPLALLLHAARPEIVMTQSPATLSLSPGERATLSCRASQDISKYLNWYQQKPGQAPRLLIYHTSRLHSGIPARFSGSGSGTDYTLTISSLQPEDFAVYFCQQGNTLPYTFGQGTKLEIKGGGGSGGGGSGGGGSQVQLQESGPGLVKPSETLSLTCTVSGVSLPDYGVSWIRQPPGKGLEWIGVIWGSETTYYQSSLKSRVTISKDNSKNQVSLKLSSVTAADTAVYYCAKHYYYGGSYAMDYWGQGTLVTVSSTTTPAPRPPTPAPTIASQPLSLRPEACRPAAGGAVHTRGLDFACDIYIWAPLAGTCGVLLLSLVITLYCKRGRKKLLYIFKQPFMRPVQTTQEEDGCSCRFPEEEEGGCELRVKFSRSADAPAYQQGQNQLYNELNLGRREEYDVLDKRRGRDPEMGGKPRRKNPQEGLYNELQKDKMAEAYSEIGMKGERRRGKGHDGLYQGLSTATKDTYDALHMQALPPRKGGGSKGGGTKGGGSKMHKRSHTGERPFQCNQCGASFTQKGNLLRHIKLHTGEKPFKCHLCNTASAEARHIKAEMGGKPIPNPLLGLDST
effect of lenalidomide on surface CAR expression of the construct: significantly reduced surface CAR expression

B2: construct 768: signal peptide, CAR19, a 16GS linker, the HilD tag, and a V5 (protein)
chain: B1 chain with K487G, K492G, K497G, K502G
effect of lenalidomide on surface CAR expression of the construct: significantly reduced surface CAR expression

B3: construct 771: signal peptide, CAR19, the HilD tag, and a V5 (protein)
chain: MALPVTALLLPLALLLHAARPEIVMTQSPATLSLSPGERATLSCRASQDISKYLNWYQQKPGQAPRLLIYHTSRLHSGIPARFSGSGSGTDYTLTISSLQPEDFAVYFCQQGNTLPYTFGQGTKLEIKGGGGSGGGGSGGGGSQVQLQESGPGLVKPSETLSLTCTVSGVSLPDYGVSWIRQPPGKGLEWIGVIWGSETTYYQSSLKSRVTISKDNSKNQVSLKLSSVTAADTAVYYCAKHYYYGGSYAMDYWGQGTLVTVSSTTTPAPRPPTPAPTIASQPLSLRPEACRPAAGGAVHTRGLDFACDIYIWAPLAGTCGVLLLSLVITLYCKRGRKKLLYIFKQPFMRPVQTTQEEDGCSCRFPEEEEGGCELRVKFSRSADAPAYQQGQNQLYNELNLGRREEYDVLDKRRGRDPEMGGKPRRKNPQEGLYNELQKDKMAEAYSEIGMKGERRRGKGHDGLYQGLSTATKDTYDALHMQALPPRMHKRSHTGERPFQCNQCGASFTQKGNLLRHIKLHTGEKPFKCHLCNTASAEARHIKAEMGGKPIPNPLLGLDST
effect of lenalidomide on surface CAR expression of the construct: significantly reduced surface CAR expression

B4: 771 (protein)
chain: B3 chain
% reduction in CAR expression [1]: 87% | Effect of lenalidomide [1]: Yes | CAR Expression (surface CAR on transduced JNL cells, flow cytometry, FurON constructs only in presence of bazedoxifene): Yes

B5: construct 773: modified signal peptide, the HilD tag, a furin cleavage site, and CAR19 (protein)
chain: MALPVTALLLPLALLLHAARPRSSLAHKRSHTGERPFQCNQCGASFTQKGNLLRHIKLHTGEKPFKCHLCNTASAEARHIKAEMGGTGAEDPRPSRKRRSLGDVGEIVMTQSPATLSLSPGERATLSCRASQDISKYLNWYQQKPGQAPRLLIYHTSRLHSGIPARFSGSGSGTDYTLTISSLQPEDFAVYFCQQGNTLPYTFGQGTKLEIKGGGGSGGGGSGGGGSQVQLQESGPGLVKPSETLSLTCTVSGVSLPDYGVSWIRQPPGKGLEWIGVIWGSETTYYQSSLKSRVTISKDNSKNQVSLKLSSVTAADTAVYYCAKHYYYGGSYAMDYWGQGTLVTVSSTTTPAPRPPTPAPTIASQPLSLRPEACRPAAGGAVHTRGLDFACDIYIWAPLAGTCGVLLLSLVITLYCKRGRKKLLYIFKQPFMRPVQTTQEEDGCSCRFPEEEEGGCELRVKFSRSADAPAYQQGQNQLYNELNLGRREEYDVLDKRRGRDPEMGGKPRRKNPQEGLYNELQKDKMAEAYSEIGMKGERRRGKGHDGLYQGLSTATKDTYDALHMQALPPR
effect of lenalidomide on surface CAR expression of the construct: did not impact surface CAR expression

B6: construct 769: signal peptide, CAR19, a 16GS linker, and the HilD tag (protein)
chain: EIVMTQSPATLSLSPGERATLSCRASQDISKYLNWYQQKPGQAPRLLIYHTSRLHSGIPARFSGSGSGTDYTLTISSLQPEDFAVYFCQQGNTLPYTFGQGTKLEIKGGGGSGGGGSGGGGSQVQLQESGPGLVKPSETLSLTCTVSGVSLPDYGVSWIRQPPGKGLEWIGVIWGSETTYYQSSLKSRVTISKDNSKNQVSLKLSSVTAADTAVYYCAKHYYYGGSYAMDYWGQGTLVTVSSTTTPAPRPPTPAPTIASQPLSLRPEACRPAAGGAVHTRGLDFACDIYIWAPLAGTCGVLLLSLVITLYCKRGRKKLLYIFKQPFMRPVQTTQEEDGCSCRFPEEEEGGCELRVKFSRSADAPAYQQGQNQLYNELNLGRREEYDVLDKRRGRDPEMGGKPRRKNPQEGLYNELQKDKMAEAYSEIGMKGERRRGKGHDGLYQGLSTATKDTYDALHMQALPPRGGGGSGGGGTGGGGSGMHKRSHTGERPFQCNQCGASFTQKGNLLRHIKLHTGEKPFKCHLCNTASAEARHIKAEMG
effect of lenalidomide on surface CAR expression of the construct: significantly reduced surface CAR expression

B7: construct 774: signal peptide, the HilD tag, a furin cleavage site, and CAR19 (protein)
chain: MALPVTALLLPLALLLHAARPHKRSHTGERPFQCNQCGASFTQKGNLLRHIKLHTGEKPFKCHLCNTASAEARHIKAEMGGTGAEDPRPSRKRRSLGDVGEIVMTQSPATLSLSPGERATLSCRASQDISKYLNWYQQKPGQAPRLLIYHTSRLHSGIPARFSGSGSGTDYTLTISSLQPEDFAVYFCQQGNTLPYTFGQGTKLEIKGGGGSGGGGSGGGGSQVQLQESGPGLVKPSETLSLTCTVSGVSLPDYGVSWIRQPPGKGLEWIGVIWGSETTYYQSSLKSRVTISKDNSKNQVSLKLSSVTAADTAVYYCAKHYYYGGSYAMDYWGQGTLVTVSSTTTPAPRPPTPAPTIASQPLSLRPEACRPAAGGAVHTRGLDFACDIYIWAPLAGTCGVLLLSLVITLYCKRGRKKLLYIFKQPFMRPVQTTQEEDGCSCRFPEEEEGGCELRVKFSRSADAPAYQQGQNQLYNELNLGRREEYDVLDKRRGRDPEMGGKPRRKNPQEGLYNELQKDKMAEAYSEIGMKGERRRGKGHDGLYQGLSTATKDTYDALHMQALPPR
effect of lenalidomide on surface CAR expression of the construct: did not impact surface CAR expression
